In the supplement of paper PMC12764529:
± gives the half width of the 95% confidence interval.

Columns and labels:
[1] = folding stability dG unfold (combined trypsin and chymotrypsin); higher = more stable
In short: (§1)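 Designed mini-proteins (under 80 residues, no cysteine) in a PA-tagged cDNA display construct were digested with trypsin and chymotrypsin. Each protease was used at 11 concentrations (threefold dilutions) plus a no-protease condition, followed by sequencing. K50 was inferred by Bayesian fitting of sequencing counts, and unfolding free energy was derived against a sequence-predicted unfolded-state K50 and a shared folded-state K50, per protease or combined. Only designs with AlphaFold2 dimer inter-PAE above 15 were kept.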

[2] = folding stability dG unfold from chymotrypsin proteolysis; higher = more stable
In short: as §1

[3] = folding stability dG unfold from trypsin proteolysis; higher = more stable
In short: as §1

Sequence	folding stability dG unfold [1] [kcal/mol]	folding stability dG unfold [2] [kcal/mol]	folding stability dG unfold [3] [kcal/mol]
SAGGSAGMTVTKTFTLPGYKVELTTHPGLPPDAPVTIEVTLTPPDGSVVKSTRTVLARPDDPSVLLSAGGSA [r15_10_JUSTAS]	2.46 ± 0.16	2.73 ± 0.12	2.15 ± 0.13
SAGGSAGMVSLTTTTTPVETRTLPDGTVVTLEKTELPDDTVVLTTTTTDPATGEVTTETTTVSLAGSAGGSA [r15_401_JUSTAS]	0.884 ± 0.11	1.11 ± 0.022	0.409 ± 0.026
SAGGSAGNPVPKVTVTDVTFGIPESDPSLLEKKAEEVAAELNKPELTVTITEYDPATYTFTITVVSSAGGSA [r15_563_JUSTAS]	1.48 ± 0.059	1.89 ± 0.07	0.648 ± 0.021
SAGGSAGPTTTPTTYARITATLRKGGETITVELEVPTSVVEEAVEALAKELGVEIEKVEVTLTEERSAGGSA [r15_535_JUSTAS]	2.3 ± 0.08	2.4 ± 0.042	2.08 ± 0.027
SAGGSAGQKIQIERVQWNPEEGYFFIRIRYPGNGREIEHHIRLDNIEIELPPGAKITDIEIYPLPNSAGGSA [r15_959_TrROS]	1.96 ± 0.13	1.83 ± 0.12	1.8 ± 0.079
SAGGSAGSLSPIGEHPYTLPDGSRITVPIYRDPATGEIVVEVETETEEEDISEKAEEYAEKVREALSAGGSA [r15_529_JUSTAS]	-0.25 ± 0.14	-0.571 ± 0.45	-0.0147 ± 0.048
SAGGSAGSMPVEVTVTITVKDKNGTVLGTFPIKITVTSEEELEAKIKELKEKLKKEGYIVEKVDVVSAGGSA [r15_1054_JUSTAS]	3.24 ± 0.091	2.65 ± 0.041	3.85 ± 0.17
SAGGSAGTITIMFPIPPGKEVKMKFLFYIPDGYIFNVDITQTGPGYITITIPIYRLPENAKDPDLISAGGSA [r15_909_TrROS]	4.43 ± 0.26	4.78 ± 0.18	3.2 ± 0.3
SAGGSAGTVKFKQPFPFYDPGNGWPFPIDIKITVEYKPDPNGEPKWQITKIEIKMPEGSPALKDLISAGGSA [r15_258_TrROS]	2 ± 0.14	2.24 ± 0.048	1.82 ± 0.11
SAGGSAGVKSSSPNGLTLEFPFESEEEVEEAVKEIKKAFPENYEVKIEIEKSEKILKVKIIVKKKDSAGGSA [r15_80_TrMRF]	1.9 ± 0.091	2.14 ± 0.061	1.08 ± 0.04
SAGGSAGVVKGRIEITFVVPPDAPGVEELARETVKRIGFDAENVEILKVERLPDGSYRVTLLLDAPSAGGSA [r15_654_TrMRF]	4.21 ± 0.071	4.47 ± 0.052	3.17 ± 0.059
SAGGSAGWVTFDILFPGKTIEEAKEFIEQIPPEFMNNIKKIEIDEIHPVGGWYHVTLTIEVPPGMKSAGGSA [r15_244_TrROS]	1.71 ± 0.16	2.06 ± 0.049	0.743 ± 0.14
SAGGSAIEPGQKVLVLFPEDGGLATLTFDPTTRTVEIEVGGERRTYPVDSLQDVLDELGAEVLSTDSAGGSA [r15_500_TrMRF]	1.82 ± 0.072	1.74 ± 0.037	2.12 ± 0.037
SAGGSAIPFPPGAKVKKIEMHEKKDDNKPRYVMIIKWEGGNIMVFQMDPGDGNFKPIGWVPLDDLKSAGGSA [r15_777_TrROS]	1.95 ± 0.12	2.33 ± 0.058	0.508 ± 0.07
SAGGSAIPPDNVKEEREITDPDDDTKIKVWRYPNDGRYWVQVYNKKGEPKWKQLGPMPANQAEDLISAGGSA [r15_295_TrROS]	-0.057 ± 0.23	-0.31 ± 0.38	0.0985 ± 0.35
SAGGSAISEEEPFVKIKVELESEPKEIILPKSDIVKIEVDEPDKIATIYLPSTGKFFPFKVLSVENSAGGSA [r15_495_TrMRF]	-0.0342 ± 0.27	-0.343 ± 0.44	0.332 ± 0.079

Sequence	folding stability dG unfold [1] [kcal/mol]	folding stability dG unfold [2] [kcal/mol]	folding stability dG unfold [3] [kcal/mol]
SAGGSAITLEDLKNAEIVKPEVMPFPDNGMWMPTWKLRDPGNGKEFVFTFMYNPGNGEPQWSLVPVSAGGSA [r15_170_TrROS]	1.2 ± 0.15	1.36 ± 0.1	1.16 ± 0.053
SAGGSAKAEEIAKLLKELGFKEVKIEKDKETNKVTITVKKKDGSEIKITIDKKTKKIVKIEIKPKKSAGGSA [r15_648_TrROS_Hall]	1.99 ± 0.25	1.78 ± 0.27	1.82 ± 0.067
SAGGSAKDILDQLKISDVHESNGMRTITLEMPGNNLPPDEIREIFEELGYEVEINPKNGRITFTIPSAGGSA [r15_599_TrROS]	1.95 ± 0.039	1.83 ± 0.02	2.09 ± 0.051
SAGGSAKEEIRLVIEVDGKLIEITIPKDKITKVEFDKETGKITITVKVNGKELKLVFTDGKAKLVESAGGSA [r15_598_TrROS_Hall]	2.47 ± 0.17	2.6 ± 0.12	2.27 ± 0.14
SAGGSAKEIKAEVKVDPETGTVTVKVYYDGKLVAEATATVEPNGEIKEVNFFFEVDPETGKLIVTGSAGGSA [r15_770_TrMRF]	2.97 ± 0.066	3.07 ± 0.059	2.73 ± 0.12
SAGGSAKEIKIEVVKVEYDKETKKVTVTLKIEVNGKKIEIKIEVDMTPEEVEEKVKKLAEELLKKLSAGGSA [r15_979_TrROS_Hall]	3.14 ± 0.25	3.03 ± 0.14	3.15 ± 0.2
SAGGSAKEIKPGEKIKVRNKETGKWFEATVTEVKKLENGELYVKVEVTIDGKTYTVTIPLKDIEVVSAGGSA [r15_62_TrROS_Hall]	4.88 ± 0.55	4.72 ± 0.3	4.3 ± 0.37
SAGGSAKEIKVEITYDPETNTITIKVYKDGKLVAEMTMKIEVNGKLIEVKVTLYLDPKTKKLVVKPSAGGSA [r15_770_TrROS_Hall]	2.96 ± 0.13	3.3 ± 0.048	1.94 ± 0.081
SAGGSAKFKIVKIEKIEIEENGTIKIKVKLEDGSTFEIEIKVKIIPPPKPKKISLEELSEEERKKLSAGGSA [r15_41_TrROS_Hall]	1.8 ± 0.13	2.11 ± 0.097	1.29 ± 0.053
SAGGSAKGPKTVTYEFKIKYGDKYYLIKVTVKLHEVKYDPKTKKYTLNLKPNDKLEIKVEIYELDDSAGGSA [r15_1040_TrMRF]	3.7 ± 0.3	4.09 ± 0.086	2.29 ± 0.26
SAGGSAKIEIIKDPETGTYTIRLEKEIKPGQTLTITDENGETWKITSVSVEEVNGELYVTVKVEKVSAGGSA [r15_838_TrROS_Hall]	3.19 ± 0.056	3.542 ± 0.026	2.24 ± 0.048
SAGGSAKIKIITENGEELEIEVETKEELEKAVEALKKLLPPDAEIEVEVVEKDGKLIVKIKVKKKPSAGGSA [r15_80_TrROS_Hall]	1.85 ± 0.31	2.17 ± 0.12	1.54 ± 0.13
SAGGSAKIKITIEYDEETGEVRIKIEVDGKEYEITLSREELANMTIEELAKKLGVEIEEVEIYPVPSAGGSA [r15_801_TrROS_Hall]	3.35 ± 0.3	2.92 ± 0.28	3.35 ± 0.24
SAGGSAKIRYIKVLLRFPPKGEKKIIVIPIENIPEDRPEELIELAKAIAEAFVEGTGAEVEGIEISSAGGSA [r15_1013_TrMRF]	4.05 ± 0.13	3.88 ± 0.072	4.34 ± 0.2
SAGGSAKITVEVVVRSLEELEALVKALAPPGMEVEVKIVSVERRTVEVNGEKREVLVVRVEIEVKPSAGGSA [r15_95_TrROS_Hall]	3.9 ± 0.33	3.09 ± 0.17	4.61 ± 0.37
